B1: Thermotoga maritima CorA N288L mutant (natural protein)
chain: MEEKRLSAKKGLPPGTLVYTGKYREDFEIEVMNYSIEEFREFKTTDVESVLPFRDSSTPTWINITGIHRTDVVQRVGEFFGIHPLVLEDILNVHQRPKVEFFENYVFIVLKMFTYDKNLHELESEQVSLILTKNCVLMFQEKIGDVFDPVRERIRYNRGIIRKKRADYLLYSLIDALVDDYFVLLEKIDDEIDVLEEEVLERPEKETVQRTHQLKRNLVELRKTIWPLREVLSSLYRDVPPLIEKETVPYFRDVYDHTIQIADTVETFRDIVSGLLDVYLSSVSNKTLEVMKVLTIIATIFMPLTFIAGIYGMNFEYMPELRWKWGYPVVLAVMGVIAVIMVVYFKKKKWL
notes: CorA of Thermotoga maritima with N288L; source: E. coli, overexpressed, purified (1% DDM solubilisation, Ni-NTA, TEV cleavage, Superdex 200)
B2: Thermotoga maritima CorA T299L mutant (natural protein)
chain: MEEKRLSAKKGLPPGTLVYTGKYREDFEIEVMNYSIEEFREFKTTDVESVLPFRDSSTPTWINITGIHRTDVVQRVGEFFGIHPLVLEDILNVHQRPKVEFFENYVFIVLKMFTYDKNLHELESEQVSLILTKNCVLMFQEKIGDVFDPVRERIRYNRGIIRKKRADYLLYSLIDALVDDYFVLLEKIDDEIDVLEEEVLERPEKETVQRTHQLKRNLVELRKTIWPLREVLSSLYRDVPPLIEKETVPYFRDVYDHTIQIADTVETFRDIVSGLLDVYLSSVSNKTNEVMKVLTIIALIFMPLTFIAGIYGMNFEYMPELRWKWGYPVVLAVMGVIAVIMVVYFKKKKWL
notes: CorA of Thermotoga maritima with T299L; source: E. coli, overexpressed, purified (1% DDM solubilisation, Ni-NTA, TEV cleavage, Superdex 200)
B3: Thermotoga maritima CorA T295L mutant (natural protein)
chain: MEEKRLSAKKGLPPGTLVYTGKYREDFEIEVMNYSIEEFREFKTTDVESVLPFRDSSTPTWINITGIHRTDVVQRVGEFFGIHPLVLEDILNVHQRPKVEFFENYVFIVLKMFTYDKNLHELESEQVSLILTKNCVLMFQEKIGDVFDPVRERIRYNRGIIRKKRADYLLYSLIDALVDDYFVLLEKIDDEIDVLEEEVLERPEKETVQRTHQLKRNLVELRKTIWPLREVLSSLYRDVPPLIEKETVPYFRDVYDHTIQIADTVETFRDIVSGLLDVYLSSVSNKTNEVMKVLLIIATIFMPLTFIAGIYGMNFEYMPELRWKWGYPVVLAVMGVIAVIMVVYFKKKKWL
notes: CorA of Thermotoga maritima with T295L; source: E. coli, overexpressed, purified (1% DDM solubilisation, Ni-NTA, TEV cleavage, Superdex 200)

Target: the molecule itself
Experiment: SEC; size-exclusion chromatography of the mutants to verify channel intactness (Supplementary Figure S2); conditions of this run not told

Binding result, binds:
B1, B2, B3
